Numbering of substitutions follows the chain as printed. Names may count otherwise.
B1: C5A (XPA23) VL S53K (antibody, V domains shown)
VH: EVQLLESGGGLVQPGGSLRLSCAASGFTFSKYFMFWVRQAPGKGLEWVSVISPSGGMTRYADSVKGRFTISRDNSKNTLYLQMNSLRAEDTAVYYCARVGYGGNSDYWGQGTLVTVSS
VL: DIQMTQSPSSVSASVGDRLTIICRASQDINRWLAWYQQTPGNAPKLLIHSATKLQSGVPSRFSGSGSGTDFTLTINSLQPEDFATYYCQQADSFPLTFGGGTKVEIK
B2: C5A (XPA23) VL D92E (antibody, V domains shown)
VH: B1 VH
VL: B1 VL with K53S, D92E
B3: C5A (XPA23) VL S93K (antibody, V domains shown)
VH: B1 VH
VL: B1 VL with K53S, S93K
B4: C5A (XPA23) VL S53Y (antibody, V domains shown)
VH: B1 VH
VL: B1 VL with K53Y
B5: C5A (XPA23) VL Q27I (antibody, V domains shown)
VH: B1 VH
VL: B1 VL with Q27I, K53S
B6: C5A (XPA23) VL D92H (antibody, V domains shown)
VH: B1 VH
VL: B1 VL with K53S, D92H
B7: C5A (XPA23) VL S53Q (antibody, V domains shown)
VH: B1 VH
VL: B1 VL with K53Q
B8: C5A (XPA23) VL A91N (antibody, V domains shown)
VH: B1 VH
VL: B1 VL with K53S, A91N
B9: C5A (XPA23) VL P95D (antibody, V domains shown)
VH: B1 VH
VL: B1 VL with K53S, P95D
B10: C5A (XPA23) VL D92K (antibody, V domains shown)
VH: B1 VH
VL: B1 VL with K53S, D92K
B11: C5A (XPA23) VL S53N (antibody, V domains shown)
VH: B1 VH
VL: B1 VL with K53N
B12: C5A (XPA23) VL P95E (antibody, V domains shown)
VH: B1 VH
VL: B1 VL with K53S, P95E
B13: C5A (XPA23) VL D28A (antibody, V domains shown)
VH: B1 VH
VL: B1 VL with D28A, K53S
B14: C5A (XPA23) VL S53T (antibody, V domains shown)
VH: B1 VH
VL: B1 VL with K53T
B15: C5A (XPA23) VL A91S (antibody, V domains shown)
VH: B1 VH
VL: B1 VL with K53S, A91S
B16: C5A (XPA23) VL S93T (antibody, V domains shown)
VH: B1 VH
VL: B1 VL with K53S, S93T
B17: C5A (XPA23) VL L96H (antibody, V domains shown)
VH: B1 VH
VL: B1 VL with K53S, L96H
B18: C5A (XPA23) VL S93Y (antibody, V domains shown)
VH: B1 VH
VL: B1 VL with K53S, S93Y
B19: C5A (XPA23) VL A91E (antibody, V domains shown)
VH: B1 VH
VL: B1 VL with K53S, A91E
B20: C5A (XPA23) VL Q27F (antibody, V domains shown)
VH: B1 VH
VL: B1 VL with Q27F, K53S
B21: C5A (XPA23) VL D92S (antibody, V domains shown)
VH: B1 VH
VL: B1 VL with K53S, D92S
B22: C5A (XPA23) VL S93N (antibody, V domains shown)
VH: B1 VH
VL: B1 VL with K53S, S93N
B23: C5A (XPA23) VL A91D (antibody, V domains shown)
VH: B1 VH
VL: B1 VL with K53S, A91D
B24: C5A (XPA23) VL S53R (antibody, V domains shown)
VH: B1 VH
VL: B1 VL with K53R
B25: C5A (XPA23) VL S93D (antibody, V domains shown)
VH: B1 VH
VL: B1 VL with K53S, S93D
B26: C5A (XPA23) VL S93H (antibody, V domains shown)
VH: B1 VH
VL: B1 VL with K53S, S93H
B27: C5A (XPA23) VL L96Q (antibody, V domains shown)
VH: B1 VH
VL: B1 VL with K53S, L96Q
B28: C5A (XPA23) VL P95S (antibody, V domains shown)
VH: B1 VH
VL: B1 VL with K53S, P95S
B29: C5A (XPA23) VL D92T (antibody, V domains shown)
VH: B1 VH
VL: B1 VL with K53S, D92T
B30: C5A (XPA23) VL Q27A (antibody, V domains shown)
VH: B1 VH
VL: B1 VL with Q27A, K53S
B31: C5A (XPA23) VL D28F (antibody, V domains shown)
VH: B1 VH
VL: B1 VL with D28F, K53S
B32: C5A (XPA23) VL L96S (antibody, V domains shown)
VH: B1 VH
VL: B1 VL with K53S, L96S
B33: C5A (XPA23) VL D28L (antibody, V domains shown)
VH: B1 VH
VL: B1 VL with D28L, K53S
B34: C5A (XPA23) VL S93E (antibody, V domains shown)
VH: B1 VH
VL: B1 VL with K53S, S93E
B35: C5A (XPA23) VL S93R (antibody, V domains shown)
VH: B1 VH
VL: B1 VL with K53S, S93R
B36: C5A (XPA23) VL D28W (antibody, V domains shown)
VH: B1 VH
VL: B1 VL with D28W, K53S
B37: C5A (XPA23) VL D28V (antibody, V domains shown)
VH: B1 VH
VL: B1 VL with D28V, K53S
B38: C5A (XPA23) VL A91H (antibody, V domains shown)
VH: B1 VH
VL: B1 VL with K53S, A91H
B39: C5A (XPA23) VL L96T (antibody, V domains shown)
VH: B1 VH
VL: B1 VL with K53S, L96T
B40: C5A (XPA23) VL L96N (antibody, V domains shown)
VH: B1 VH
VL: B1 VL with K53S, L96N
B41: C5A (XPA23) VL D28G (antibody, V domains shown)
VH: B1 VH
VL: B1 VL with D28G, K53S
B42: C5A (XPA23) VL A91T (antibody, V domains shown)
VH: B1 VH
VL: B1 VL with K53S, A91T
B43: C5A (XPA23) VL D92N (antibody, V domains shown)
VH: B1 VH
VL: B1 VL with K53S, D92N
B44: C5A (XPA23) VL S93Q (antibody, V domains shown)
VH: B1 VH
VL: B1 VL with K53S, S93Q
B45: C5A (XPA23) VL D92Q (antibody, V domains shown)
VH: B1 VH
VL: B1 VL with K53S, D92Q
B46: C5A (XPA23) VL Q27L (antibody, V domains shown)
VH: B1 VH
VL: B1 VL with Q27L, K53S

biological target: binding partner of C5A (XPA23); experiment: Biacore K-off

Row | Binder | fold difference in affinity vs original [fold]
1 | B1 | 4.07
2 | B2 | 0.99
3 | B3 | 0.86
4 | B4 | 1.23
5 | B5 | 0.82
6 | B6 | 0.63
7 | B7 | 1.09
8 | B8 | 0.1
9 | B9 | 1.32
10 | B10 | 0.23
11 | B11 | 1.23
12 | B12 | 0.88
13 | B13 | 0.88
14 | B14 | 0.95
15 | B15 | 0.9
16 | B16 | 1.47
17 | B17 | 0.07
18 | B18 | 1.45
19 | B19 | 0.1
20 | B20 | 2.96
21 | B21 | 6.59
22 | B22 | 3.76
23 | B23 | 1.08

Row | Binder | fold difference in affinity vs original [fold]
24 | B24 | 3.29
25 | B25 | 4.59
26 | B26 | 1.08
27 | B27 | 0.21
28 | B28 | 4.05
29 | B29 | 0.34
30 | B30 | 1.47
31 | B31 | 1.43
32 | B32 | 0.23
33 | B33 | 9.64
34 | B34 | 3.71
35 | B35 | 0.91
36 | B36 | 3.81
37 | B37 | 0.85
38 | B38 | 1.12
39 | B39 | 0.06
40 | B40 | 0.06
41 | B41 | 1.21
42 | B42 | 0.67
43 | B43 | 0.67
44 | B44 | 1.54
45 | B45 | 0.56
46 | B46 | 0.83
